Results on three molecules are retold here after paper PMC12254369, “Small molecule disruption of RARα/NCoR1 interaction inhibits chaperone-mediated autophagy in cancer” (EMBO Molecular Medicine, 2025).

Ends that are not written are not given here. * marks the point of attachment. FITC = O=C1OC2(c3ccc(O)cc3Oc3cc(O)ccc32)c2ccc(NC(=S)*)cc21; Ahx = NCCCCCC(=O)O

For assay [1], the target named is T1, His-tagged RARα LBD with FITC-SRC (Homo sapiens, UniProt P10276).
T1 construct: gene RARA; LBD residues 176-462 with His tag
T1 sequence (P10276 176-462): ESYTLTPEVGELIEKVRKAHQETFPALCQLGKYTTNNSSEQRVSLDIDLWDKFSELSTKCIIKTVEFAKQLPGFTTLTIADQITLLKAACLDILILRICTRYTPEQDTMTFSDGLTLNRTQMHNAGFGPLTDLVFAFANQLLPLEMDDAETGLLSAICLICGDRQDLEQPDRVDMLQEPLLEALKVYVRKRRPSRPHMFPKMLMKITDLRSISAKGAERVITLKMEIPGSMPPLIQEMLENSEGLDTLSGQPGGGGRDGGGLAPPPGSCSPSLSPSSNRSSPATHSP
The assay can be described thus: TR-FRET coactivator peptide recruitment. It is filed as binding. As to conditions: 3 nM His-RARα LBD, 50 nM FITC-SRC, 5 mM DTT, pH 7.4, 1 h; agonist. On the technique in general: Time-resolved FRET reads energy transfer from a long-lived donor to a nearby acceptor.

Assay [2] deals with T2, Recombinant RARα LBD (ligand binding domain of human retinoic acid receptor alpha, residues 176-462, … (human, UniProt P10276 176-462)).
T2 construct: The His tag is detected by the anti-6HIS Tb cryptate antibody in the TR-FRET assay; also called His-tagged RARα LBD; source: E. coli BL21(DE3), purified (Ni-NTA, Superdex 200 gel filtration); not shown: His tag, N-terminal, kept
T2 sequence (looked up): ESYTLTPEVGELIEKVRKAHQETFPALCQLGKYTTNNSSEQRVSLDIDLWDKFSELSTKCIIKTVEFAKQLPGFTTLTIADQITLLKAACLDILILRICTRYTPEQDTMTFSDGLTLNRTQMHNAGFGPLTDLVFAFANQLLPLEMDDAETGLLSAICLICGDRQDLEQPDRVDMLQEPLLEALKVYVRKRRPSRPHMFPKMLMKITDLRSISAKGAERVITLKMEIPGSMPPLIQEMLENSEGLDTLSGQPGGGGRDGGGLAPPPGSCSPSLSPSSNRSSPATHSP
The experiment in a line: AlphaScreen or HTRF; TR-FRET: 3 nM His-tagged RARα LBD, 0.5 nM anti-6HIS Tb cryptate (donor), 50 nM FITC-SRC (acceptor); 1x PBS, 0.02% Pluronic F-127, 5 mM DTT, pH 7.4; 1 h; increasing concentrations of CIM7, ATRA or AM580. The following applies: both partners purified. (In general: Alpha assays give light when donor and acceptor beads are brought close together.)

Assay [3] concerns the target T2, Recombinant RARα LBD (ligand binding …). The assay can be described thus: fluorescence polarisation; RARα LBD serially diluted from 50 µM, 5 nM FITC-NCoR1 peptide; 20 mM HEPES, 150 mM NaCl, 5 mM DTT, pH 7.5; read at 1 h; with DMSO, 25 µM CIM7, 10 µM ATRA or AM580. As to conditions: both partners purified.

For the molecule `CC1=C(/C=C/C(C)=C/C=C/C(C)=C/C(=O)O)C(C)(C)CCC1` [ATRA, All-trans retinoic acid], the “TR-FRET coactivator peptide recruitment” value in assay [1] was “rather enhance binding of the coactivator, SRC”.

B1: FITC-SRC peptide (FITC-Ahx-RHKILHRLLQEGS) (peptide)
peptide: {FITC-Ahx}-RHKILHRLLQEGS
notes: source: synthetic peptide (GenScript, purity >95%)
On to B1, for which the binding result in assay [2] is given as “binds”.

B2: FITC-NCoR1 peptide (FITC-Ahx-RLITLADHICQIITQDFAR) (peptide)
peptide: {FITC-Ahx}-RLITLADHICQIITQDFAR
notes: peptide of nuclear receptor corepressor 1 (NCoR1); also called NCoR1 fluorescent peptide; source: synthetic peptide (GenScript, purity >95%)
For the molecule B2, the binding result in assay [3] was “binds”.
